From US20240066142A1, “A UPAR (UROKINASE PLASMINOGEN ACTIVATOR RECEPTOR)-TARGETING CONJUGATE” (FLUOGUIDE A/S, priority 2021, published 2024)
Primed or numbered codes have the meaning given here. [ ]: non-standard residue; d: D form. Cha = N[C@@H](CC1CCCCC1)C(=O)O; IRDye800CW′ = not defined here; AEEA = NCCOCCOCC(=O)O

Assays:
human uPAR = human uPAR (Homo sapiens, UniProt Q03405); assay: SPR binding of conjugate or uPA to immobilized His-tagged recombinant human uPAR
Procedure: SPR was also applied to determine the KD-value of binding of the uPAR-binding conjugate to uPAR.
The uPAR-binding conjugates as well as the endogenous ligand uPA were analyzed in 2-fold dilution series from low to high concentration with a running buffer injection in between each injection. Injection of uPAR-binding conjugate or uPA (at a rate of 50 μL/minute) was performed for 120 seconds (association), and dissociation was assessed for 120 s (at a rate of 50 μL/minute). Running buffer was PBS supplemented with 0.01% Tween-20 and 50 μM EDTA).
Binding affinities were determined using the above described SPR-based approach, measuring binding affinities (KD) of the uPAR-targeting conjugates to immobilized human uPAR protein (the tumor target protein).

uPAR·uPA interaction = uPAR·uPA interaction (Homo sapiens, UniProt Q03405); assay: SPR competition: inhibition of the uPAR·uPA interaction (immobilized human uPA, 2.5 nM uPAR); assay type: binding; conditions: uPAR 2.5 nM pre-incubated 10 minutes with conjugate
Procedure: Surface plasmon resonance (SPR) was applied to determine the IC50-value of uPAR-targeting conjugate for its ability to inhibit the uPAR·uPA interaction. In brief, human recombinant uPA, which is the natural ligand for uPAR, was immobilized to the SPR sensor chip. Binding of uPAR at a concentration of 2.5 nM in the absence of UPAR-binding conjugate was examined, followed by analyses of a fixed uPAR concentration (2.5 nM) incubated with a 2-fold dilution series of uPAR-binding conjugate pre-incubated for 10 minutes at room temperature prior to injection. uPAR injection (at a rate of 50 μL/minute) was performed for 300 s (association), and dissociation was assessed for 500 s (at a rate of 50 μL/minute). The uPAR/uPAR-binding conjugate complex was injected from low to high concentration with a regeneration step followed by a buffer injection in between each injection. Regeneration was performed for 20 s by injection of 0.5 M NaCl+0.1 M Acetic acid at a 30 μL/min flow rate, followed by running buffer wash (running buffer: PBS supplemented with 0.01% Tween-20 and 50 μM EDTA).
From this type of SPR analysis, the IC50 values for uPAR-targeting conjugates were determined.
The top signal represents uPAR binding in the absence of uPAR-targeting conjugate.

[1] = target: recombinant human uPAR containing a His-tag (immobilized to a NTA chip) (human) (UniProt Q03405); assay: SPR, His-tagged human uPAR on NTA chip, steady-state responses
[2] = target: human uPAR (urokinase Plasminogen Activator Receptor), in solution at 2.5 nM in the competition SPR assay (human) (UniProt Q03405); assay: SPR competition: 2.5 nM uPAR pre-incubated with dilution series of conjugate, injected over immobilised human uPA
Chain of human uPAR (urokinase Plasminogen Activator Receptor), in solution at 2.5 nM in the competition SPR assay (human) (Q03405 23-305 limits assumed): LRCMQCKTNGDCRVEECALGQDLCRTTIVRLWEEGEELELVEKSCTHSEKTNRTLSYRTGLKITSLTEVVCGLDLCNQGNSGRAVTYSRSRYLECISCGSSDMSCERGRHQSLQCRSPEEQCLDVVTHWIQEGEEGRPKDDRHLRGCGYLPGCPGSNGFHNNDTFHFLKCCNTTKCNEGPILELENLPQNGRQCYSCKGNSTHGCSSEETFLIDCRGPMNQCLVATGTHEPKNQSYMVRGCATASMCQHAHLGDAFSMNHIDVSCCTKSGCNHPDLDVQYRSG

Chain of recombinant human uPAR containing a His-tag (immobilized to a NTA chip) (human) (Q03405 23-305 limits assumed): as above
Chain of uPAR·uPA interaction (Q03405 23-305): as the sequence (Q03405 23-305 limits assumed) above

CC(C)C[C@H](NC(=O)[C@H](Cc1ccc(O)cc1)NC(=O)[C@@H](CCCNC(=N)N)NC(=O)[C@@H](CO)NC(=O)[C@H](Cc1ccccc1)NC(=O)[C@H](CC1CCCCC1)NC(=O)[C@H](CC(=O)O)NC(=O)COCCOCCNC(=O)COCCOCCNC(=O)[C@H](CCC(=O)O)NC(=O)[C@H](CCC(=O)O)NC(=O)CCCCCN1C(=CC=C2CCCC(C=CC3=[N+](CCCCS(=O)(=O)[O-])c4ccc(S(=O)(=O)O)cc4C3(C)C)=C2Oc2ccc(S(=O)(=O)O)cc2)C(C)(C)c2cc(S(=O)(=O)O)ccc21)C(=O)N[C@@H](Cc1c[nH]c2ccccc12)C(=O)N[C@@H](CO)C(=O)O [Compound example 2, IRDye800CW-EE-020c-020c-DChaFsrYLWS-OH] was tested. Which kon (human uPAR; on-rate binding) did it give?
The kon was at least 4.6e+06 M⁻¹ s⁻¹.

Which IC50 (uPAR·uPA interaction) does the source give for “Compound example 1: uPAR-targeting conjugate based on the fluorophore ICG and the peptide AE105 (DXFSRYLWS; D-residues; non-natural residues; cyclised or stapled)” here?
The IC50 was 7 nM.

And the Kd (human uPAR; KD from steady state binding responses where Kon too fast)?
The Kd was 2000 nM.

And the Kon (human uPAR; on-rate binding)?
Its Kon is at least 4.6e+06 M⁻¹ s⁻¹.

Which Kd [1] does the source give for {IRDye800CW′}-EE[AEEA][AEEA]D[Cha]F[dS][dR]YLWS-OH here?
Its Kd is 325 nM.

And the IC50 [2]?
Its IC50 is 24 nM.
